Results taken from the supplement of paper PMC6757056.
± gives the standard deviation of the averaged measurements.

B1: library; a variant is named by its letters at N, in order (parent)
chain: GCUGUCACCGAGAAACUGUGAAGUAUAUCUUAAACCUGGGCACUUAAAAGAUAUAUGGAGUUAGUAGUGCAACCUGCUCGGUCUGAUGAGUCCNNNNNNGGACGAAACAGC

Columns and labels:
cyclic di-GMP [1] = variants of: B1; assay: FACS-Seq fitted mean relative fluorescence mCherry/BFP without ligand (log10 relative fluorescence); HEK293T; ligand: cyclic di-GMP (c-di-GMP-II aptamer); higher = higher reporter protein expression; settings: ligand present: no
How it was run: (§1)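 An mCherry reporter containing the ribozyme switch and an EF1α-BFP marker were introduced by lentivirus into HEK293T libraries. Cells were enriched, incubated 48 h with or without ligand, sorted into 6 bins by mCherry/BFP, and bin genomic DNA was PCR-amplified, barcoded and sequenced on MiSeq. Fluorescence represents the normalized fitted normal mean of the bin counts. Fitting was done on log10(mCherry/BFP), scaling to five spiked-in control ribozymes.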

cyclic di-GMP [2] = variants of: B1; assay: normalized RNA/DNA level without ligand (relative to sTRSVctl = 100) (log10 (% of sTRSVctl)); HEK293T; ligand: cyclic di-GMP (c-di-GMP-II aptamer); higher = less ribozyme self-cleavage, higher mRNA level; settings: reporter: mCherry (pCS4076), ligand present: no
Protocol: (§2)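 Hammerhead (sTRSV) ribozyme switch libraries with a ligand aptamer grafted on stem I and a randomized N4-6 loop II, cloned into the 3' UTR of mCherry and transiently transfected into HEK293T cells; RNA-Seq 72 h post transfection with ligand added 1 h before transfection; RNA read count / plasmid DNA read count normalized to the non-cleaving sTRSVctl (x100), log10; sequences with >100 DNA reads. FACS-Seq: lentiviral library sorted into 6 bins after 48 h ligand, log-normal fit mean of mCherry/BFP scaled to controls. Printed sequences are partial switch sequences.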

cyclic di-GMP [3] = variants of: B1; assay: FACS-Seq fitted mean relative fluorescence mCherry/BFP with ligand (log10 relative fluorescence); HEK293T; ligand: cyclic di-GMP (c-di-GMP-II aptamer); ligand concentration (+) FACS-Seq: 1 mM; higher = higher reporter protein expression; settings: ligand present: yes
How it was run: as §1

cyclic di-GMP [4] = variants of: B1; assay: normalized RNA/DNA level with ligand (relative to sTRSVctl = 100) (log10 (% of sTRSVctl)); HEK293T; ligand: cyclic di-GMP (c-di-GMP-II aptamer); ligand concentration (+) RNA-Seq: 1 mM; higher = less ribozyme self-cleavage, higher mRNA level; settings: reporter: mCherry (pCS4076), ligand present: yes
Protocol: as §2

| Variant | FACS-Seq fitted mean (log10) (cyclic di-GMP [1]) | normalized RNA/DNA level without ligand (log10) (cyclic di-GMP [2]) | FACS-Seq fitted mean (log10) (cyclic di-GMP [3]) | normalized RNA/DNA level with ligand (log10) (cyclic di-GMP [4]) |
| --- | --- | --- | --- | --- |
| AGAUAA | -0.905 ± 0.032 | 1.44 ± 0.11 | -0.444 ± 0.023 | 1.65 ± 0.11 |
| UCCCGU | -0.0215 ± 0.15 | 1.72 ± 0.022 | 0.3 ± 0.015 | 1.83 ± 0.15 |
| AGACGU | -1.017 ± 0.0037 | 1.573 ± 0.012 | -0.759 ± 0.072 | 1.75 ± 0.13 |
| GUAAGA | -0.617 ± 0.027 | 1.46 ± 0.061 | -0.308 ± 0.026 | 1.61 ± 0.13 |
| CAAAUA | -0.296 ± 0.0065 | 1.28 ± 0.11 | -0.211 ± 0.2 | 1.46 ± 0.14 |
| ACAAAA | -0.498 ± 0.059 | 1.31 ± 0.11 | -0.271 ± 0.018 | 1.52 ± 0.069 |
| UCUAAA | -0.692 ± 0.041 | 1.495 ± 0.0055 | -0.441 ± 0.055 | 1.74 ± 0.15 |
| GAGUUA | -0.199 ± 0.084 | 1.74 ± 0.033 | -0.129 ± 0.019 | 1.82 ± 0.14 |
| GAGUUG | -0.0245 ± 0.095 | 1.8 ± 0.04 | 0.211 ± 0.021 | 1.92 ± 0.12 |
| GAGUAG | -0.7206 ± 0.0025 | 1.84 ± 0.075 | -0.563 ± 0.061 | 1.89 ± 0.12 |
| GAGUAA | -0.0125 ± 0.15 | 1.71 ± 0.027 | 0.165 ± 0.029 | 1.81 ± 0.069 |
| CCGGGG | -0.589 ± 0.03 | 1.43 ± 0.022 | -0.295 ± 0.011 | 1.62 ± 0.11 |
| GUUUGC | -0.138 ± 0.079 | 1.66 ± 0.043 | 0.164 ± 0.012 | 1.79 ± 0.15 |
| UCAAAA | -0.275 ± 0.04 | 1.46 ± 0.037 | -0.0447 ± 0.01 | 1.68 ± 0.15 |
| ACGAAA | -0.618 ± 0.032 | 1.35 ± 0.1 | -0.313 ± 0.013 | 1.52 ± 0.11 |
| GUGGAC | -0.519 ± 0.08 | 1.55 ± 0.092 | -0.171 ± 0.053 | 1.75 ± 0.095 |
| CGGACU | -0.791 ± 0.13 | 1.48 ± 0.14 | -0.611 ± 0.11 | 1.64 ± 0.11 |
| CGGAAU | -0.644 ± 0.016 | 1.34 ± 0.11 | -0.366 ± 0.027 | 1.44 ± 0.13 |

| Variant | FACS-Seq fitted mean (log10) (cyclic di-GMP [1]) | normalized RNA/DNA level without ligand (log10) (cyclic di-GMP [2]) | FACS-Seq fitted mean (log10) (cyclic di-GMP [3]) | normalized RNA/DNA level with ligand (log10) (cyclic di-GMP [4]) |
| --- | --- | --- | --- | --- |
| AACACU | 0.049 ± 0.17 | 1.68 ± 0.033 | 0.373 ± 0.032 | 1.81 ± 0.096 |
| GUUUAU | -0.2549 ± 0.0013 | 1.652 ± 0.0032 | -0.31 ± 0.34 | 1.81 ± 0.086 |
| CACUUG | -0.104 ± 0.083 | 1.74 ± 0.026 | 0.131 ± 0.0033 | 1.87 ± 0.12 |
| CGGUAU | -0.696 ± 0.0075 | 1.35 ± 0.14 | -0.413 ± 0.0071 | 1.51 ± 0.14 |
| CCCGUA | -0.351 ± 0.12 | 1.55 ± 0.067 | -0.0502 ± 0.012 | 1.72 ± 0.055 |
| UCAGUC | -0.277 ± 0.12 | 1.697 ± 0.0098 | -0.0482 ± 0.1 | 1.85 ± 0.082 |
| UUUCGA | 0.0382 ± 0.21 | 1.82 ± 0.041 | 0.251 ± 0.061 | 1.89 ± 0.079 |
| UAGUGG | -0.133 ± 0.082 | 1.71 ± 0.064 | 0.162 ± 0.086 | 1.84 ± 0.069 |
| CUUGGA | -0.381 ± 0.03 | 1.55 ± 0.031 | -0.107 ± 0.044 | 1.73 ± 0.16 |
| CAGUUA | -0.724 ± 0.01 | 1.28 ± 0.15 | -0.4923 ± 0.0038 | 1.42 ± 0.041 |
| CGAAUU | -0.504 ± 0.036 | 1.38 ± 0.11 | -0.238 ± 0.016 | 1.57 ± 0.088 |
| CCAGAC | -0.24 ± 0.11 | 1.631 ± 0.0075 | 0.128 ± 0.0098 | 1.83 ± 0.16 |
| ACAUUA | -0.21 ± 0.0052 | 1.41 ± 0.087 | 0.0676 ± 0.069 | 1.62 ± 0.078 |
| CUUCUA | -0.605 ± 0.032 | 1.44 ± 0.072 | -0.312 ± 0.059 | 1.67 ± 0.075 |
| UAUGAA | -0.265 ± 0.024 | 1.64 ± 0.018 | -0.0026 ± 0.016 | 1.78 ± 0.08 |
| CCGGAU | -0.339 ± 0.015 | 1.55 ± 0.074 | -0.0202 ± 0.13 | 1.76 ± 0.1 |
| CCGGAC | -0.253 ± 0.11 | 1.62 ± 0.034 | -0.0326 ± 0.0056 | 1.75 ± 0.086 |
| AUGAUG | -0.239 ± 0.054 | 1.6 ± 0.069 | 0.056 ± 0.078 | 1.77 ± 0.11 |
